Assay [1] has as its target Canine_OSMR_hlgG1_Fc (canine). Description: SPR Biacore. Background: In SPR one partner is held on a chip, and binding of the other changes the refractive index at the surface.
The target of assay [2] is Feline_OSMR_hlgG1_Fc (feline). Description: SPR Biacore.
For assay [3], the target named is Canine_OSMR_hlgG1_Fc (canine). Description: SPR Biacore, OSMR on chip.
The target in assay [4] is Feline_OSMR_hlgG1_Fc (feline). Briefly: SPR Biacore, OSMR on chip.
Assay [5] concerns the target Feline_OSMR_hlgG1_Fc (feline). Briefly: indirect ELISA, fOSMR coated; OD ratio to antibody expression control. A general note: An ELISA detects its analyte on a solid surface through an enzyme-linked reagent.

The values below come from patent publication US20220177594A1.

Canine_OSMR_hlgG1_Fc (canine), sequence (chain, as listed by the source limits assumed, form in doubt): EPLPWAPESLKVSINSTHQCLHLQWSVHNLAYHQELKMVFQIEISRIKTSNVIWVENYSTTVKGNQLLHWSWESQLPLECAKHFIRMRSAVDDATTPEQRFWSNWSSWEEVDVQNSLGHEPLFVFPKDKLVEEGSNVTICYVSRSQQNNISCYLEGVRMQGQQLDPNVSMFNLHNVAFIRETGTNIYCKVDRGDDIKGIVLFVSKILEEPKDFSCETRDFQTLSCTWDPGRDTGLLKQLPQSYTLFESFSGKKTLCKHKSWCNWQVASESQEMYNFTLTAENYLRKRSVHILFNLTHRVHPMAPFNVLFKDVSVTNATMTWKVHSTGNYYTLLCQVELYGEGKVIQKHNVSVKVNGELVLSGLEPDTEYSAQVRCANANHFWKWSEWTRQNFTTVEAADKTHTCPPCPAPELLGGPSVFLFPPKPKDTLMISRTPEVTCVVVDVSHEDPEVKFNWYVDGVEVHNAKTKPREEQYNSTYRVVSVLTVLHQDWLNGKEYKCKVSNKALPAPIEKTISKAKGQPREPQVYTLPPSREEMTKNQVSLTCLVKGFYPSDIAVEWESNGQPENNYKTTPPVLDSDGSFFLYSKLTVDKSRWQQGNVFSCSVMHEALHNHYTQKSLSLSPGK
Feline_OSMR_hlgG1_Fc (feline), sequence (chain, as listed by the source limits assumed, form in doubt): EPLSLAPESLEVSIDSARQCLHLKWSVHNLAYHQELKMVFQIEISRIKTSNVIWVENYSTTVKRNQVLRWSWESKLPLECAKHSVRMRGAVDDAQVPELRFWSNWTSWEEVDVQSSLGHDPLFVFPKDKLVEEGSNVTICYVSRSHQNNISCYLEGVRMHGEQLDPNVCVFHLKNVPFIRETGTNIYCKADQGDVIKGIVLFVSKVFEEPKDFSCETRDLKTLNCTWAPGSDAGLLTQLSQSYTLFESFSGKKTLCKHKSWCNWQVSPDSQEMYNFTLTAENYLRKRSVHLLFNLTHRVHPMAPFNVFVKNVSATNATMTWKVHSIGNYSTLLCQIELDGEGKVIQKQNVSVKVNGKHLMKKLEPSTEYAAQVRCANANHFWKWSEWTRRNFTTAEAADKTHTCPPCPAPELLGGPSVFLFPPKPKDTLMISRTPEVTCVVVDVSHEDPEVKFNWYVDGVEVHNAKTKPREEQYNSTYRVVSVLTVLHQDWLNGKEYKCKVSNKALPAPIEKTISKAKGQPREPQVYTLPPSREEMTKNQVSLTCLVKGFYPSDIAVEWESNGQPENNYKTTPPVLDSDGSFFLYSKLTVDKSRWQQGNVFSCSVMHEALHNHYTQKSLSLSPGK

B1: mouse: canine 19F07 chimera (antibody, V domains shown)
VH: EVKLVESEGGLVQPGSSMKLSCTASGFTFSDYYMAWVRQVPEKGLEWVANINYDGSSTYYLDSLKSRFIISRDNAKNILYLQMSSLKSEDTATYYCARGLTWDFDVWGTGTTVTVSS
VL: DIVMTQSHKFMSPSVGDRVSITCKASQDVDTAVAWYQQKPGQSPKLLIYLASTRHTGVPDRFTGSGSGTDFTLTISNVQSEDLADYFCQQYSRFPLTFGAGTKLELKR
For the molecule B1, the Kd in assay [1] stood at 7.49 nM; in assay [2], 0.312 nM; in assay [3] it was 442 nM; in assay [4], 44.5 nM. Also, the koff was found to be 0.000775 s⁻¹ in assay [1], 8.06e-05 s⁻¹ in assay [2], 0.00084 s⁻¹ in assay [3] and 0.002 s⁻¹ in assay [4]. Also, the on-rate constant (kon) worked out at 88400 M⁻¹ s⁻¹ in assay [1], 242000 M⁻¹ s⁻¹ in assay [2], 1900 M⁻¹ s⁻¹ in assay [3] and 45100 M⁻¹ s⁻¹ in assay [4]. In addition, the ELISA ratio in assay [5] is 1.72 OD ratio.

B2: mouse: canine 09E09 chimera (antibody, V domains shown)
VH: DVKLVESGEGLVKPGGSLKLSCAASGFTFSSYAMSWVRQTPEKRLEWVAYISSGGDYIYYADTVKGRFTISRDNARNTLYLQMSSLKSEDTAMYYCTRDPITGTFAYWGQGTLVTVSA
VL: DLQMTQTTSSLSASLGDRVTISCRASQDINNYLNWYQQKPDGTVKLLIYYTSTLHSGVPSRFSGSGSGTDYSLTISNLEQEDIATYFCQQGNTLPWTFGGGTKLEIKR
For B2, the Kd in assay [1] worked out at 3.83 nM; in assay [2], 1.24 nM; in assay [3], 5.29 nM; in assay [4], 2.37 nM. Besides, the koff was 0.0021 s⁻¹ in assay [1], 0.000945 s⁻¹ in assay [2], 0.00104 s⁻¹ in assay [3] and 0.000697 s⁻¹ in assay [4]. The kon in assay [1] is 572000 M⁻¹ s⁻¹; in assay [2], 759000 M⁻¹ s⁻¹; in assay [3], 196000 M⁻¹ s⁻¹; in assay [4] it was 294000 M⁻¹ s⁻¹. Besides, the ELISA ratio in assay [5] came out at 1.61 OD ratio.

B3: mouse: canine 10F07 chimera (antibody, V domains shown)
VH: DVKLVESGEGLVKPGGSLKLSCAASGFTFSSYAMSWVRQTPEKRLEWVTYISSGGDYFYYADTVKGRFTISRDNARNTLYLQMSSLKSEDTAMYYCTRDPITGTFAYWGQGTLVTVSA
VL: DIQMTQTTSSLSASLGDRVTISCRASQDITNYLNWYQQKPDGTVKLLIYYTSTLHSGVPSRFSGSGSGTDFSLTISNLEQEDIATYFCQQGHMLPWTFGGGTKLEIKR
Turning to B3, the Kd in assay [1] came out at 6.13 nM; in assay [2], 1.57 nM; in assay [3], 1.38 nM; in assay [4] it was 0.022 nM. Also, the koff in assay [1] is 0.000302 s⁻¹; in assay [2] it was 0.000346 s⁻¹; in assay [3] it was 0.000222 s⁻¹; in assay [4], 4.4e-07 s⁻¹. Also, the on-rate (kon) in assay [1] worked out at 49400 M⁻¹ s⁻¹; in assay [2], 220000 M⁻¹ s⁻¹; in assay [3] it was 161000 M⁻¹ s⁻¹; in assay [4], 20000 M⁻¹ s⁻¹. Besides, the ELISA ratio in assay [5] came out at 1.76 OD ratio.

One may read the Kd as the concentration at which binding is half-saturated. A word on the koff: it is a measure of how fast the partners let go of each other. One may read the kon as the rate constant with which the complex forms. A low value points to slower complex formation.
